Measured values as given in the Human Domainome abundance scans (Beltran et al. 2025).
± gives the uncertainty stated by the source.

B1: Double-stranded RNA-specific adenosine deaminase, residues 296 to 358; numbered along this chain, P55265 (parent)
chain: MAEIKEKICDYLFNVSDSSALNLAKNIGLTKARDINAVLIDMERQGDVYRQGTTPPIWHLTDK

Variants of: B1
Test: abundance fitness (aPCA) (normalised: wild type 0, dead -1); higher = more abundant; growth selection in yeast, the domain comes from the species named
Details: Homo sapiens

| Variant | abundance fitness |
| --- | --- |
| MAEIKEKICDYLFNPSDSSALNLAKNIGLTKARDINAVLIDMERQGDVYRQGTTPPIWHLTDK [V15P] | -0.64 ± 0.17 |
| MAEIKEKICDYLFNQSDSSALNLAKNIGLTKARDINAVLIDMERQGDVYRQGTTPPIWHLTDK [V15Q] | -0.288 ± 0.077 |
| MAEIKEKICDYLFNRSDSSALNLAKNIGLTKARDINAVLIDMERQGDVYRQGTTPPIWHLTDK [V15R] | -0.231 ± 0.049 |
| MAEIKEKICDYLFNSSDSSALNLAKNIGLTKARDINAVLIDMERQGDVYRQGTTPPIWHLTDK [V15S] | -0.137 ± 0.062 |
| MAEIKEKICDYLFNTSDSSALNLAKNIGLTKARDINAVLIDMERQGDVYRQGTTPPIWHLTDK [V15T] | -0.392 ± 0.11 |
| MAEIKEKICDYLFNWSDSSALNLAKNIGLTKARDINAVLIDMERQGDVYRQGTTPPIWHLTDK [V15W] | -0.213 ± 0.063 |
| MAEIKEKICDYLFNYSDSSALNLAKNIGLTKARDINAVLIDMERQGDVYRQGTTPPIWHLTDK [V15Y] | -0.202 ± 0.096 |
| MAEIKEKICDYLFNVADSSALNLAKNIGLTKARDINAVLIDMERQGDVYRQGTTPPIWHLTDK [S16A] | -0.018 ± 0.048 |
| MAEIKEKICDYLFNVCDSSALNLAKNIGLTKARDINAVLIDMERQGDVYRQGTTPPIWHLTDK [S16C] | -0.25 ± 0.095 |
| MAEIKEKICDYLFNVDDSSALNLAKNIGLTKARDINAVLIDMERQGDVYRQGTTPPIWHLTDK [S16D] | -0.342 ± 0.074 |
| MAEIKEKICDYLFNVHDSSALNLAKNIGLTKARDINAVLIDMERQGDVYRQGTTPPIWHLTDK [S16H] | -0.108 ± 0.094 |
| MAEIKEKICDYLFNVIDSSALNLAKNIGLTKARDINAVLIDMERQGDVYRQGTTPPIWHLTDK [S16I] | -0.543 ± 0.11 |
| MAEIKEKICDYLFNVKDSSALNLAKNIGLTKARDINAVLIDMERQGDVYRQGTTPPIWHLTDK [S16K] | 0.206 ± 0.079 |
| MAEIKEKICDYLFNVLDSSALNLAKNIGLTKARDINAVLIDMERQGDVYRQGTTPPIWHLTDK [S16L] | -0.525 ± 0.054 |
| MAEIKEKICDYLFNVMDSSALNLAKNIGLTKARDINAVLIDMERQGDVYRQGTTPPIWHLTDK [S16M] | -0.379 ± 0.077 |
| MAEIKEKICDYLFNVNDSSALNLAKNIGLTKARDINAVLIDMERQGDVYRQGTTPPIWHLTDK [S16N] | -0.006 ± 0.087 |
| MAEIKEKICDYLFNVPDSSALNLAKNIGLTKARDINAVLIDMERQGDVYRQGTTPPIWHLTDK [S16P] | -0.1 ± 0.062 |
| MAEIKEKICDYLFNVQDSSALNLAKNIGLTKARDINAVLIDMERQGDVYRQGTTPPIWHLTDK [S16Q] | -0.124 ± 0.063 |
| MAEIKEKICDYLFNVTDSSALNLAKNIGLTKARDINAVLIDMERQGDVYRQGTTPPIWHLTDK [S16T] | -0.407 ± 0.064 |
| MAEIKEKICDYLFNVVDSSALNLAKNIGLTKARDINAVLIDMERQGDVYRQGTTPPIWHLTDK [S16V] | -0.249 ± 0.061 |
| MAEIKEKICDYLFNVWDSSALNLAKNIGLTKARDINAVLIDMERQGDVYRQGTTPPIWHLTDK [S16W] | -0.514 ± 0.086 |
| MAEIKEKICDYLFNVYDSSALNLAKNIGLTKARDINAVLIDMERQGDVYRQGTTPPIWHLTDK [S16Y] | -0.684 ± 0.12 |

| Variant | abundance fitness |
| --- | --- |
| MAEIKEKICDYLFNVSASSALNLAKNIGLTKARDINAVLIDMERQGDVYRQGTTPPIWHLTDK [D17A] | 0.405 ± 0.22 |
| MAEIKEKICDYLFNVSMSSALNLAKNIGLTKARDINAVLIDMERQGDVYRQGTTPPIWHLTDK [D17M] | -0.499 ± 0.27 |
| MAEIKEKICDYLFNVSTSSALNLAKNIGLTKARDINAVLIDMERQGDVYRQGTTPPIWHLTDK [D17T] | -0.501 ± 0.49 |
| MAEIKEKICDYLFNVSDDSALNLAKNIGLTKARDINAVLIDMERQGDVYRQGTTPPIWHLTDK [S18D] | -0.461 ± 0.085 |
| MAEIKEKICDYLFNVSDESALNLAKNIGLTKARDINAVLIDMERQGDVYRQGTTPPIWHLTDK [S18E] | -0.49 ± 0.049 |
| MAEIKEKICDYLFNVSDFSALNLAKNIGLTKARDINAVLIDMERQGDVYRQGTTPPIWHLTDK [S18F] | -0.816 ± 0.15 |
| MAEIKEKICDYLFNVSDHSALNLAKNIGLTKARDINAVLIDMERQGDVYRQGTTPPIWHLTDK [S18H] | -0.366 ± 0.081 |
| MAEIKEKICDYLFNVSDISALNLAKNIGLTKARDINAVLIDMERQGDVYRQGTTPPIWHLTDK [S18I] | -1.01 ± 0.21 |
| MAEIKEKICDYLFNVSDKSALNLAKNIGLTKARDINAVLIDMERQGDVYRQGTTPPIWHLTDK [S18K] | -0.549 ± 0.063 |
| MAEIKEKICDYLFNVSDMSALNLAKNIGLTKARDINAVLIDMERQGDVYRQGTTPPIWHLTDK [S18M] | -0.684 ± 0.1 |
| MAEIKEKICDYLFNVSDNSALNLAKNIGLTKARDINAVLIDMERQGDVYRQGTTPPIWHLTDK [S18N] | -0.607 ± 0.096 |
| MAEIKEKICDYLFNVSDPSALNLAKNIGLTKARDINAVLIDMERQGDVYRQGTTPPIWHLTDK [S18P] | -0.83 ± 0.14 |
| MAEIKEKICDYLFNVSDQSALNLAKNIGLTKARDINAVLIDMERQGDVYRQGTTPPIWHLTDK [S18Q] | -0.481 ± 0.076 |
| MAEIKEKICDYLFNVSDRSALNLAKNIGLTKARDINAVLIDMERQGDVYRQGTTPPIWHLTDK [S18R] | -0.721 ± 0.056 |
| MAEIKEKICDYLFNVSDTSALNLAKNIGLTKARDINAVLIDMERQGDVYRQGTTPPIWHLTDK [S18T] | -0.388 ± 0.065 |
| MAEIKEKICDYLFNVSDVSALNLAKNIGLTKARDINAVLIDMERQGDVYRQGTTPPIWHLTDK [S18V] | -0.699 ± 0.062 |
| MAEIKEKICDYLFNVSDWSALNLAKNIGLTKARDINAVLIDMERQGDVYRQGTTPPIWHLTDK [S18W] | -0.535 ± 0.079 |
| MAEIKEKICDYLFNVSDYSALNLAKNIGLTKARDINAVLIDMERQGDVYRQGTTPPIWHLTDK [S18Y] | -0.698 ± 0.11 |
| MAEIKEKICDYLFNVSDSTALNLAKNIGLTKARDINAVLIDMERQGDVYRQGTTPPIWHLTDK [S19T] | -0.236 ± 0.26 |
| MAEIKEKICDYLFNVSDSYALNLAKNIGLTKARDINAVLIDMERQGDVYRQGTTPPIWHLTDK [S19Y] | -0.5 ± 0.38 |
| MAEIKEKICDYLFNVSDSSDLNLAKNIGLTKARDINAVLIDMERQGDVYRQGTTPPIWHLTDK [A20D] | -0.64 ± 0.26 |
